Where two headings read alike, the source gives them in different places.
Tests used:
Assay in all cases: SEC-MALS
[1] = molecular target: Nup358-KLC2-fusion protein (human | mouse) (UniProt P49792)
[2] = molecular target: Nup358-min (residues 2147–2240 of human Nup358) (human) (UniProt P49792)
[3] = molecular target: Nup358/W2224A/D2225A-KLC2-fusion protein (human | mouse) (UniProt P49792)
[4] = molecular target: Nup358-KLC2-fusion protein (human | mouse) (UniProt P49792); remark: listed apart in the source

Measured: stoichiometry N

BicD2-CTD (residues 715–804 of human BicD2) (domain or fragment)
1: all assays above
